Test results published in patent US6946588B2, “Nucleic acid encoding a modified threonine deaminase and methods of use” (Monsanto Technology LLC, priority 1996, dated 2005).

How the values were obtained:
[1] = system: A. eutrophus PhbA and BktB β-ketothiolases; assay: β-Ketothiolase condensation assay with 1-14C-acetyl-CoA (PhbA, BktB); type: biochemical; settings: 0.30 mM acetyl-CoA
Description: As noted above, A. eutrophus can produce P(3HB-co-3HV) copolymer when provided with an appropriate C5 precursor. […] One of these β-ketothiolases, designated BktB herein, was encoded on plasmid pBK6. A. eutrophus BktB was obtained from E. coli DH5α transformed with plasmid pMON25754. pMON25754 was produced from the A. eutrophus pBK6 clone (Slater et al., 1988) by deleting a 5.0 kb XhoI fragment (there is an additional XhoI site approximately 5.0 kb 5′ to the XhoI site shown in FIG. 1 of Slater et al.). The pBK6 clone was produced by Slater et al. (1988) from A. eutrophus H16, i.e., ATCC accession number 17699, which is publicly available from the American Type Culture Collection, 12301 Parklawn Drive, Rockville, Md. 20852. BktB was overexpressed from its native promoter on the high copy plasmid pMON25754 by growing the cells overnight at 37° C. to stationary phase in LB broth containing ampicillin (100 μg/ml). A. eutrophus PhbA was obtained from E. coli DH5α transformed with pMON25636 (FIG. 20) by growing the cells at 37° C. in LB broth containing ampicillin (100 μg/ml) to early log phase and then inducing with IPTG. Cells were harvested after two hours of further growth.
The activity of β-ketothiolases can be assayed in both the condensation and thiolysis directions. However, condensation activity for products that are the result of a mixed condensation of acetyl-CoA and a longer chain acyl-CoA are difficult to measure. This is due to the difficulty in distinguishing between acetoacetyl-CoA, the product of condensing two acetyl-CoA molecules, and the mixed condensation reaction product, both of which form simultaneously. To date, condensation assays have been spectrophotometrically-based, but these are valid only when there is a single acyl-CoA substrate present (i.e., acetyl-CoA) since they cannot discriminate between the products formed. The assay described below represents the first reported assay that permits complete quantitation of all condensation products regardless of the nature of starting substrates.
β-ketothiolase assays designed to measure the condensation activity with acetyl-CoA plus either propionyl-CoA or butyryl-CoA were performed using 1-^14C-labelled acetyl-CoA. Since the equilibrium for the reaction lies heavily toward the starting acyl-CoAs rather than the condensed β-ketoacyl-CoA product, the latter was “pulled” to the corresponding β-hydroxyacyl-CoA using NADH and β-ketoacyl-CoA dehydrogenase. In addition, to avoid the strong feedback inhibition of β-ketothiolase by free CoA, each assay solution contained 5,5′-dithio-bis(2-nitrobenzoic acid) (DTNB) to trap chemically the free CoA produced by the reaction.
The condensation assay mixture (0.5 ml final volume) contained 100 mM KPi, pH 7.8, 0.5 mM NADH, 0.30 mM 1-^14C-acetyl-CoA (0.15 μCi), 5 units β-ketoacyl-CoA dehydrogenase, 0.5 mM DTNB, and variable propionyl- or butyryl-CoA as indicated in Table 5. The reaction was initiated by the addition of β-ketothiolase. Following 20 minutes at 30° C., each reaction mixture was quenched by the addition of 25 μl of 10% formic acid. Thirty μl of 25% H2SO4 were added to 200 μl of quenched reaction mix; this mixture was then incubated at 70° C. for 24 hours to hydrolyze all CoA thioesters to their free acids. Sixty μl of 5 M sodium formate were added to the sample to neutralize the pH, followed by analysis of a 130 μl aliquot using C18-reverse-phase HPLC (0.5×25 cm column). Detection and quantitation were carried out by monitoring flow-through with a Radiomatic flow detector. A gradient elution was employed using aqueous 1% acetic acid (solvent A) and acetonitrile (solvent B). […]

E. coli DH5α cells = assay: PHA production by transformed E. coli DH5α on glucose and propionate (GC analysis); type: cell-based; settings: Set 2 versus Set 1
Description: E. coli DH5α cells contining both sets of plasmids expressing all of the required PHA biosynthesis enzymes were grown on 50 ml of LB broth containing all three antibiotics supplemented with 0.75% glucose and 0.15% propionate. The tac promoters were induced with IPTG at a final concentration of 0.5 mM. Nalidixic acid was added to a final concentration of 60 μg/ml. The cells were grown under antibiotic selection (see above) for 24 hours and assayed for the presence of PHA polymer. Cells were centrifuged at 7,000 rpm for 20 min., washed with 25 ml methanol, recentrifuged, washed with 15 ml hexane, and recentrifuged. Cell pellets were dried under N2 for two hours, and the dry cell weights determined. 6.5 ml of chloroform were added to extract the PHA at 100° C. for one hour. The solution was cooled and filtered through a PTFE syringe filter (13 mm diameter, 0.45 μm pore). The PHA was precipitated by the addition of 50 ml of methanol, centrifuged, and washed with hexane. The polymer was dried at 70° C. for two hours, and polymer weight was determined. Methanolysis was performed by dissolving 3-5 mg of PHA sample by the addition of 1 ml of CHCl3, with methyl benzoate as an internal standard for normalization of the data. […] The solution was then analyzed by gas chromatography as described in the section entitled “In vivo Analysis of Cloned E. coli ilvA Genes”.

[2] = Storage stability of purified BktB; type: physicochemical; settings: 10 mM Tris-HCl, pH 7.8, 1 mM DTT, 50% glycerol at −20° C.
Description: Purified BktB protein was prepared by growing E. coli EE36 transformed with pMON25754 in LB broth containing ampicillin (100μg/ml) overnight at 37° C. Cells were then harvested by centrifugation, and the pellet was resuspended in 50 mM KPi and 5% glycerol, sonicated, and the sonicate centrifuged to remove cellular debris. The cell extract was desalted using a PD-10 column (Pharmacia), and proteins resolved using a Pharmacia FPLC system and MonoQ anion-exchange column (Pharmacia). Buffer A was 10 mM Tris buffer, pH 7.8, plus 1 mM DTT; buffer B was buffer A plus 1 M KCl. The gradient was 0 to 10% B in 10 min, then to 35% B in 40 min. The flow rate was 1 ml/min, and the resolved proteins were collected at the rate of 1 ml/fraction. The BktB protein was found in fractions 20 to 27, with the maximum activity peak at fraction 23. […] The enzyme was stored in 10 mM Tris-HCl, pH 7.8, 1 mM DTT, 50% glycerol at −20° C.

B1: BktB: A. eutrophus β-ketothiolase encoded on pBK6, amino acid sequence SEQ ID NO:11 (protein, listed as Alcaligenes eutrophus)
chain: MTREVVVVSGVRTAIGTFGGSLKDVAPAELGALVVREALARAQVSGDDVGHVVFGNVIQTEPRDMYLGRVAAVNGGVTINAPALTVNRLCGSGLQAIVSAAQTILLGDTDVAIGGGAESMSRAPYLAPAARWGARMGDAGLVDMMLGALHDPFHRIHMGVTAENVAKEYDISRAQQDEAALESHRRASAAIKAGYFKDQIVPVVSKGRKGDVTFDTDEHVRHDATIDDMTKLRPVFVKENGTVTAGNASGLNDAAAAVVMMERAEAERRGLKPLARLVSYGHAGVDPKAMGIGPVPATKIALERAGLQVSDLDVIEANEAFAAQACAVTKALGLDPAKVNPNGSGISLGHPIGATGALITVKALHELNRVQGRYALVTMCIGGGQGIAAIFERI
[1]; butyryl-CoA 0.6 mM
  % Turnover C4 Product: 1.0%
  % Turnover C6 Product: 4.9%
[1]; butyryl-CoA 1.2 mM
  % Turnover C4 Product: 0.6%
  % Turnover C6 Product: 7.3%
[1]; butyryl-CoA 2.4 mM
  % Turnover C4 Product: 0.4%
  % Turnover C6 Product: 7.9%
[1]; propionyl-CoA 0 mM
  % Turnover C4 Product: 4.2%
[1]; propionyl-CoA 0.6 mM
  % Turnover C4 Product: 1.8%
  % Turnover C5 Product: 13.2%
[1]; propionyl-CoA 1.2 mM
  % Turnover C4 Product: 1.0%
  % Turnover C5 Product: 15.6%
[1]; propionyl-CoA 2.4 mM
  % Turnover C4 Product: 0.7%
  % Turnover C5 Product: 17.8%
E. coli DH5α cells
  greater percentage of the C5 monomer than cells expressing the PhbA β-ketothiolase: five-to-six-fold
[2]
  stability of activity on storage: Activity remained constant for a minimum of two months
